Assay results reported in patent US6333178.

What was measured:
[1] = target: DNA polymerase I (Escherichia coli) (UniProt P00582)
[2] = target: DNA polymerase II (Escherichia coli) (UniProt P21189)
[3] = target: MBP-UmuC fusion protein (maltose binding protein fused to UmuC, DNA polymerase V) (Escherichia coli)
[4] = target: DNA polymerase III holoenzyme

| Substance | Cro- mutation frequency after gap-filling replication by pol I with UmuD', RecA, SSB (Cro- mutation frequency per gene) [1] | Cro- mutation frequency after gap-filling replication by pol II with UmuD', RecA, SSB (Cro- mutation frequency per gene) [2] | Cro- mutation frequency after in vitro gap-filling replication, UmuD' omitted (Cro- mutation frequency per gene) [3] | Cro- mutation frequency after gap-filling replication by pol III holoenzyme with UmuD', RecA, SSB (Cro- mutation frequency per gene) [4] | Cro- mutation frequency after in vitro gap-filling replication, RecA omitted (Cro- mutation frequency per gene) [3] | Cro- mutation frequency after in vitro gap-filling replication, SSB omitted (Cro- mutation frequency per gene) [3] |
| --- | --- | --- | --- | --- | --- | --- |
| UmuD' (from UniProt P0AG11) | 0.00078 | 0.00065 | 0.00027 | 0.00081 |  |  |
| RecA (from UniProt P0A7G6) | 0.00078 | 0.00065 |  | 0.00081 | 0.00025 |  |
| SSB (single stranded DNA-binding protein) (from UniProt P0AGE0) | 0.00078 | 0.00065 |  | 0.00081 |  | 0.00051 |
